Key:
GALR3 = molecular target: T1, GALR3 (Homo sapiens, UniProt O60755); assay: Luciferase reporter gene assay (SRE), HEK293 Gqi cells; format: cell-based
T1 construct: expressed in transfected cells; host or cells: genetically modified HEK293 Gqi cells, transient
T1 sequence (O60755 1-368): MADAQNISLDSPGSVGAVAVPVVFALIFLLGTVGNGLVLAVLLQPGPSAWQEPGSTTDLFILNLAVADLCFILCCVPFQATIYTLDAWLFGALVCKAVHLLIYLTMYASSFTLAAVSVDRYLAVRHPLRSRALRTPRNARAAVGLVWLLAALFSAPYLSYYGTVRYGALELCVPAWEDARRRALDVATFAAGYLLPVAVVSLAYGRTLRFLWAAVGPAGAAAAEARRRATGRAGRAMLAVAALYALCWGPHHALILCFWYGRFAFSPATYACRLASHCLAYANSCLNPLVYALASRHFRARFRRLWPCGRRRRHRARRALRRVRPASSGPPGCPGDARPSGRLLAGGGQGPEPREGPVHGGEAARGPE
Method: GalR3 activity was measured, alongside GalR1 and GalR2, using a luciferase reporter assay. A reporter plasmid and a receptor plasmid, were transiently transfected into the target cell line. The reporter plasmid contains a serum response element (SRE) or a nuclear factor of activated T-cells response element (NFAT-RE) which is coupled to a luciferase transcript and induces expression of the luciferase upon a specific G-protein (Gai uses SRE; Gaq uses NFAT-RE) activation. The target receptor is constantly expressed after cell transfection. For GALR1 and GALR3 screening, genetically modified HEK293 Gqi cells were transiently transfected with the SRE reporter and the receptor (GALR1 and GALR3) plasmids. For GALR2 screening, HEK293 cells were transiently transfected with the NFAT-RE reporter and the receptor (GALR2) plasmid. […] The luciferase activity was analyzed with the Bright-Glo Luciferase Assay (Promega) in an EnSpire plate reader.
Therefore, to measure activity at the GalR3 receptor a reporter gene assay was used. In this system MAP/ERK signalling is used to measure receptor activity. Activation of Gqi coupled receptors leads to downstream activation of ERK1/2. The activated ERK translocates to the nucleus where it phosphorylates and activates transcription factors, which lead to the binding of Serum response element (SRE). In this assay SRE activation induces expression of a luciferase reporter gene. […] To ensure this effect was not an artifact of the reporter gene assay, GalR1 and GalR2 reporter assays (using SRE and NFAT-RE respectively) were also run.

mouse GalR2 = molecular target: T2, mouse GalR2 (Mus musculus, UniProt O88854); assay: Calcium assay at orthologue receptor; format: cell-based; conditions: Table 8; Calcium assays; mean +/− standard deviation
T2 sequence (O88854 1-371): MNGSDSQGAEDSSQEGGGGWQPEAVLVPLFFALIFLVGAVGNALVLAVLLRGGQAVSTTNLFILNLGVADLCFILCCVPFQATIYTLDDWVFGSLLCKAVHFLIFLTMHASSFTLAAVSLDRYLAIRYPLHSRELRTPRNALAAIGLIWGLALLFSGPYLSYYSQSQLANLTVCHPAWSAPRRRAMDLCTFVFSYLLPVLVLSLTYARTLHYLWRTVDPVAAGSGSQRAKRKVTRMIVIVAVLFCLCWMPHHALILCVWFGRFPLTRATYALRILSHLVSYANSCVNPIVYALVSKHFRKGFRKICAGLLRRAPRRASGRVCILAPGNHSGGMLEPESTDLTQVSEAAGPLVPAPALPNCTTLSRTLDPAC
From the text: (§1) These species were chosen as they represent potential downstream in vivo models to be used. Within native galanin amino acid residues 1-15 are conserved across species, we would therefore expect the Gal FC fusions comprising amino acids 2 to 13 to retain GalR2 activity in these species. Calcium imaging was used to define receptor activity.

GALR2 [1] = molecular target: T3, GALR2 (Homo sapiens, UniProt O43603); assay: β-arrestin recruitment, PathHunter CHO-K1 GALR2 cells; format: cell-based; conditions: Table 2; mean +/− standard deviation, n ≥ 3
T3 sequence (O43603 1-387): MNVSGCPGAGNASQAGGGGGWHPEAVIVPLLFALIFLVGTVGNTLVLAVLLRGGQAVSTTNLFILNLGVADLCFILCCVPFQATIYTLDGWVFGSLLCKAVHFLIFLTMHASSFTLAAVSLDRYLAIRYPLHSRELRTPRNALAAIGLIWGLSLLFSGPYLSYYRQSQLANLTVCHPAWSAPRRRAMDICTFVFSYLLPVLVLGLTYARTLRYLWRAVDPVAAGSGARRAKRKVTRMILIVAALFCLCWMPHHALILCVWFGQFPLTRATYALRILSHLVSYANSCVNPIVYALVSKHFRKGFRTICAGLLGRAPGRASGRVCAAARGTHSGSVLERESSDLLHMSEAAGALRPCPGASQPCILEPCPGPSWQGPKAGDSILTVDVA
Method: Ligands were prepared at half log dilutions using cell plating reagent 2. 5 μl of each ligand was added to cells and plates incubated at 37° C. for 90 minutes. DiscoverX PathHunter detection kit (DiscoverX, USA) was added to cells as described my manufacturer's guidelines and plates incubated for 60 minutes at room temperature in the dark. Chemiluminescent signal was measured using the PHERAstar FS (BMG, Germany).

GALR2 [2] = molecular target: T3, GALR2; assay: Calcium assay, CHO GalR2 cells (FLIPR); conditions: mean +/− standard deviation; for GalR2 Calcium, mean pEC50: Table 2, n ≥ 3; for GalR2 activity (calcium assay), warhead length: Table 6
Method: CHO GalR2 cells were plated at 10,000 cells per well in black clear bottom plates (corning, USA) and incubated overnight at 37° C. with 5% CO2. […] Ligands were prepared at a 5× concentration and added to cells using the FLIPR (Molecular Devices, USA). Baseline was typically 20 seconds before ligand addition. […] For analysis, fluorescence was normalised to pre-addition baseline and peak fluorescence used for all quantification.
In brief, a panel of functional cell-based microtiter-plate assays were developed using recombinant GalR1 and GalR2 receptors stably expressed in CHO cells. […] Nominally this equated to 10 serial (~3fold) dilutions with highest concentrations of 10-1 μM as appropriate.
In addition to generating both potency and efficacy estimates, the latter being expressed relative to native galanin, both G-protein and non-G-Protein signalling pathways were measured.

cynomolgus GalR2 = assay: Calcium assay at orthologue receptor; format: cell-based, Macaca fascicularis; conditions: Table 8; Calcium assays; mean +/− standard deviation
From the text: as §1

[3] = highest concentration tested 10 μM

Substance	activity at GalR3 (in words) (GALR3)	Mouse GalR2 activity (mouse GalR2)	GalR2 Beta Arrestin, mean pEC50 (GALR2 [1])	GalR2 Calcium, mean pEC50 (GALR2 [2])	GalR2 activity (calcium assay), warhead length (GALR2 [2]; [3])	GalR2 activity (calcium assay), linker variants (GALR2 [2]; Table 7, highest concentration tested 10 μM)	Cynomolgus GalR2 activity (cynomolgus GalR2)
Gal2-13FC: galanin 2-13, AEAAAKEAAAKA linker, human IgG1 FC; SEQ ID NO: 7	no measurable activity	6.4 +/− 0.3	6.7 +/− 0.2	6.3 +/− 0.3	6.4 +/− 0.1	6.4 +/− 0.1	7.7 +/− 0.4
Gal2-30FC: galanin 2-30, AEAAAKEAAAKA linker, human IgG1 FC; SEQ ID NO: 28	no measurable activity	7.0 +/− 0.1	7.3 +/− 0.2	6.6 +/− 0.3	6.8 +/− 0.1		8.4 +/− 0.1
